According to article PMC4204884:
Read-outs that look alike come from different tables or passages of the source.

How the values were obtained:
[1] = biological target: T1, Cdc5-R1-R2-D3ΔL (Schizosaccharomyces pombe, UniProt P39964 5-208, del111-146); experiment: pull-down
[2] = biological target: T1, Cdc5-R1-R2-D3ΔL; experiment: pull-down; remark: listed apart in the source

AAGUGUAG (ssRNA) [Bi-U2 ssRNA]
binding result [1]: binds

CAGAGAA (ssRNA) [Bi-U6 ssRNA]
binding result [1]: binds

CGUACACCAUCAGGGUACG (structured_RNA) [Bi-MS2 dsRNA]
binding result [2]: binds
